From patent US20210238260
Where a chain is given by its changes, count along the chain named. Numbers in names are those of the source.

B1: FIXa R318Y/R338E/E410N/T412V (protein)
chain 1: YNSGKLEEFVQGNLERECMEEKCSFEEAREVFENTERTTEFWKQYVDGDQCESNPCLNGGSCKDDINSYECWCPFGFEGKNCELDVTCNIKNGRCEQFCKNSADNKVVCSCTEGYRLAENQKSCEPAVPFPCGRVSVSQTSKLTR
chain 2: VVGGEDAKPGQFPWQVVLNGKVDAFCGGSIVNEKWIVTAAHCVETGVKITVVAGEHNIEETEHTEQKRNVIRIIPHHNYNAAINKYNHDIALLELDEPLVLNSYVTPICIADKEYTNIFLKFGSGYVSGWGRVFHKGYSALVLQYLRVPLVDRATCLESTKFTIYNNMFCAGFHEGGRDSCQGDSGGPHVTEVEGTSFLTGIISWGEECAMKGKYGIYTKVSRYVNWIKNKVKLT
B2: FIXa N260S/R318Y/R338E/R403E/E410N (protein)
chain 1: B1 chain 1
chain 2: B1 chain 2 with N80S, R223E, V232T
B3: FIXa D104N/K106S/N260S/R318Y/R338E/R403E/E410N (protein)
chain 1: B1 chain 1 with D104N, K106S
chain 2: B1 chain 2 with N80S, R223E, V232T
B4: FIXa Y155F/N260S/R318Y/R338E/R403E/E410N (protein)
chain 1: B1 chain 1
chain 2: B1 chain 2 with N80S, R223E, V232T
B5: FIXa Y155F/R318Y/R338E/N346D/R403E/E410N (protein)
chain 1: B1 chain 1
chain 2: B1 chain 2 with N166D, R223E, V232T
B6: FIXa Y155F/K247N/N249S/N260S (protein)
chain 1: B1 chain 1
chain 2: B1 chain 2 with K67N, N69S, N80S, Y138R, E158R, N230E, V232T
B7: FIXa D104N/K106S/K247N/N249S/N260S (protein)
chain 1: B1 chain 1 with D104N, K106S
chain 2: B1 chain 2 with K67N, N69S, N80S, Y138R, E158R, N230E, V232T
B8: FIXa D104N/K106S/Y155F/K247N/N249S/N260S (protein)
chain 1: B1 chain 1 with D104N, K106S
chain 2: B1 chain 2 with K67N, N69S, N80S, Y138R, E158R, N230E, V232T
B9: FIXa K247N/N249S/N260S/R318Y/R338E/R403E/E410N (protein)
chain 1: B1 chain 1
chain 2: B1 chain 2 with K67N, N69S, N80S, R223E, V232T
B10: FIXa Y155F/K247N/N249S/N260S/R318Y/R338E/R403E/E410N (protein)
chain 1: B1 chain 1
chain 2: B1 chain 2 with K67N, N69S, N80S, R223E, V232T
B11: FIXa R318Y/R338E/T343R/R403E/E410N (protein)
chain 1: B1 chain 1
chain 2: B1 chain 2 with T163R, R223E, V232T
B12: FIXa Y155F/R318Y/R338E/T343R/R403E/E410N (protein)
chain 1: B1 chain 1
chain 2: B1 chain 2 with T163R, R223E, V232T

Target: Factor X, P00742
Sequence (P00742 whole entry, looked up): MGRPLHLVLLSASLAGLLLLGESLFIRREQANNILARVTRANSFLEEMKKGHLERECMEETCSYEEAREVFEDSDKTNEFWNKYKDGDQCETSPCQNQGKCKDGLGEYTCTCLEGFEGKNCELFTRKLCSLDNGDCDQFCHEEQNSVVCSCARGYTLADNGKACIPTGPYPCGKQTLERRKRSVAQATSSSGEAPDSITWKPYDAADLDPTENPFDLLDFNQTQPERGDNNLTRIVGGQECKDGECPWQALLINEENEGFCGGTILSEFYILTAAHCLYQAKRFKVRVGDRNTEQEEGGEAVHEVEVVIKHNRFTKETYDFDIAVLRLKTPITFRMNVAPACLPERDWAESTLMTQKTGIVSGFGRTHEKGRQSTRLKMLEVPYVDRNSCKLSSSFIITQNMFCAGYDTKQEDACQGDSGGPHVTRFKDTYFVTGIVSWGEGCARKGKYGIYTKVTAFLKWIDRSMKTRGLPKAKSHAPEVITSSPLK

Row | Protein | % of WT kcat/KM | KM (FX activation by FIXa in Xase complex with FVIIIa, PC/PS vesicles, Ca2+) | kcat/KM
1 | B1 | 571% | 0.0236 µM | 2.6e+08 M⁻¹ s⁻¹
2 | B2 | 114% | 0.0724 µM | 5.3e+07 M⁻¹ s⁻¹
3 | B3 | 190% | 0.0611 µM | 8.8e+07 M⁻¹ s⁻¹
4 | B4 | 152% | 0.0839 µM | 7e+07 M⁻¹ s⁻¹
5 | B5 | 135% | 0.1 µM | 6.2e+07 M⁻¹ s⁻¹
6 | B6 | 42% | 0.0965 µM | 1.9e+07 M⁻¹ s⁻¹
7 | B7 | 21% | 0.0612 µM | 9.8e+06 M⁻¹ s⁻¹
8 | B8 | 18% | 0.0685 µM | 8.2e+06 M⁻¹ s⁻¹
9 | B9 | 145% | 0.0474 µM | 6.7e+07 M⁻¹ s⁻¹
10 | B10 | 124% | 0.0954 µM | 5.7e+07 M⁻¹ s⁻¹
11 | B11 | 907% | 0.0247 µM | 4.2e+08 M⁻¹ s⁻¹
12 | B12 | 640% | 0.0272 µM | 3e+08 M⁻¹ s⁻¹
